B1: LINE1-full (parent)
chain: UACGUAGGUGGUUUUCCCCUGAUAGUGCUAAGGGGGCCUGGAAGUUUGGACUGGGCAGAGCUCAACACAGCGUGGCAAAGUGGCUGUGGCUAGACUGCCUCUCUGGAUUCCUCGUCACUCAGCAGGGCAUCUCUGAGAGAAAUGCC

Variants of: B1
Test: self-cleavage, relative activity (ratio to wild type); higher = more cleavage; in vitro, sequencing; the parent is a self-cleaving ribozyme

| Variant | self-cleavage |
| --- | --- |
| UACGUAGGUGGUUUUUCCCUGAUAGUGCUAAGGGGGCCUGGAAGUUUGGACUGGGCAGAGCUCAACACAGCGUGGCAAAGUGGCUGUGGCUAGACUGCCUCUCUGGAUUCCCCGUCACUCAGCAGGGCAUCUCUGAGAGAAAUGCC [C16U U112C] | 1.71 |
| UACGUAGGUGGUUUUUCCCUGAUAGUGCUAAGGGGGCCUGGAAGUUUGGACUGGGCAGAGCUCAACACAGCGUGGCAAAGUGGCUGUGGCUAGACUGCCUCUCUGGAUUCCUCGUCACACAGCAGGGCAUCUCUGAGAGAAAUGCC [C16U U119A] | 1.17 |
| UACGUAGGUGGUUUUUCCCUGAUAGUGCUAAGGGGGCCUGGAAGUUUGGACUGGGCAGAGCUCAACACAGCGUGGCAAAGUGGCUGUGGCUAGACUGCCUCUCUGGAUUCCUCGUCACUCAGCAGGGCAUCACUGAGAGAAAUGCC [C16U U132A] | 1.41 |
| UACGUAGGUGGUUUUUCCCUGAUAGUGCUAAGGGGGCCUGGAAGUUUGGACUGGGCAGAGCUCAACACAGCGUGGCAAAGUGGCUGUGGCUAGACUGCCUCUCUGGAUUCCUCGUCACUCAGCAGGGCAUCUCUGAGAGAAAAGCC [C16U U143A] | 0.86 |
| UACGUAGGUGGUUUUCACCUGAUAGUGCUAAGGGGGCCUGGAAGUUUGGACUGGGCAGAGCUCAACACAGCGUGGCAAAGUGGCUGUGGCUAGACUGCCUCUCUGGAUUCCUCGUCACUCAGCAGGGCAUCUCUGAGAGAAAUGCC [C17A] | 1.27 |
| UACGUAGGUGGUUUUCACCUGAUAGUGCUAAGGGGGCCUGGGAGUUUGGACUGGGCAGAGCUCAACACAGCGUGGCAAAGUGGCUGUGGCUAGACUGCCUCUCUGGAUUCCUCGUCACUCAGCAGGGCAUCUCUGAGAGAAAUGCC [C17A A42G] | 1.13 |
| UACGUAGGUGGUUUUCACCUGAUAGUGCUAAGGGGGCCUGGAAGUUUGGACUGGGCAGUGCUCAACACAGCGUGGCAAAGUGGCUGUGGCUAGACUGCCUCUCUGGAUUCCUCGUCACUCAGCAGGGCAUCUCUGAGAGAAAUGCC [C17A A59U] | 0.69 |
| UACGUAGGUGGUUUUCACCUGAUAGUGCUAAGGGGGCCUGGAAGUUUGGACUGGGCAGAGCUCAACACAGCGUGGCAAUGUGGCUGUGGCUAGACUGCCUCUCUGGAUUCCUCGUCACUCAGCAGGGCAUCUCUGAGAGAAAUGCC [C17A A79U] | 0.87 |
| UACGUAGGUGGUUUUCACCUGAUAGUGCUAAGGGGGCCUGGAAGUUUGGACUGGGCAGAGCUCAACACAGCGUGGCAAAGUGGCUGUGGCUAGACUGCCUCUCUGGAUUCCUCGUCACUCAGCAGGGCAUCUCUGAGAGAACUGCC [C17A A142C] | 1.9 |
| UACGUAGGUGGUUUUCACCUGAUAGUGCUAAGGGAGCCUGGAAGUUUGGACUGGGCAGAGCUCAACACAGCGUGGCAAAGUGGCUGUGGCUAGACUGCCUCUCUGGAUUCCUCGUCACUCAGCAGGGCAUCUCUGAGAGAAAUGCC [C17A G35A] | 0.81 |
| UACGUAGGUGGUUUUCACCUGAUAGUGCUAAGGGGGCCUGGAAGUUUGGACUGGGCAGAGCUCAACACAUCGUGGCAAAGUGGCUGUGGCUAGACUGCCUCUCUGGAUUCCUCGUCACUCAGCAGGGCAUCUCUGAGAGAAAUGCC [C17A G70U] | 0.13 |
| UACGUAGGUGGUUUUCACCUGAUAGUGCUAAGGGGGCCUGGAAGCUUGGACUGGGCAGAGCUCAACACAGCGUGGCAAAGUGGCUGUGGCUAGACUGCCUCUCUGGAUUCCUCGUCACUCAGCAGGGCAUCUCUGAGAGAAAUGCC [C17A U45C] | 1.35 |
| UACGUAGGUGGUUUUCACCUGAUAGUGCUAAGGGGGCCUGGAAGUUUGGACUGGGCAGAGCUCAACACAGCGUGGCAAAGUGGCUGUGGCUAGACUGCCUCUCUGGAUUCCUCGUCACUCAGCAGGGCAUCACUGAGAGAAAUGCC [C17A U132A] | 1.17 |
| UACGUAGGUGGUUUUCACCUGAUAGUGCUAAGGGGGCCUGGAAGUUUGGACUGGGCAGAGCUCAACACAGCGUGGCAAAGUGGCUGUGGCUAGACUGCCUCUCUGGAUUCCUCGUCACUCAGCAGGGCAUCUCCGAGAGAAAUGCC [C17A U134C] | 1.11 |
| UACGUAGGUGGUUUUCGCCUGAUAGUGCUAAGGGGGCCUGGAAGUUUGGACUGGGCAGAGCUCAACACAGCGUGGCAAAGUGGCUGUGGCUAGACUGCCUCUCUGGAUUCCUCGUCACUCAGCAGGGCAUCUCUGAGAGAAAUGCC [C17G] | 0.91 |
| UACGUAGGUGGUUUUCGCCUGAUAGUGCUAAGGGGGCCUGGAAGUUUGGACUGGGCAGUGCUCAACACAGCGUGGCAAAGUGGCUGUGGCUAGACUGCCUCUCUGGAUUCCUCGUCACUCAGCAGGGCAUCUCUGAGAGAAAUGCC [C17G A59U] | 0.55 |
| UACGUAGGUGGUUUUCGCCUGAUAGUGCUAAGGGGGCCUGGAAGUUUGGACCGGGCAGAGCUCAACACAGCGUGGCAAAGUGGCUGUGGCUAGACUGCCUCUCUGGAUUCCUCGUCACUCAGCAGGGCAUCUCUGAGAGAAAUGCC [C17G U52C] | 1.22 |
| UACGUAGGUGGUUUUCGCCUGAUAGUGCUAAGGGGGCCUGGAAGUUUGGACUGGGCAGAGCUCAACACAGCGUGGCAAAGUGGCUGUGGCUAGACUGCCUCUCUGGAUUCCUCGCCACUCAGCAGGGCAUCUCUGAGAGAAAUGCC [C17G U115C] | 0.84 |
| UACGUAGGUGGUUUUCGCCUGAUAGUGCUAAGGGGGCCUGGAAGUUUGGACUGGGCAGAGCUCAACACAGCGUGGCAAAGUGGCUGUGGCUAGACUGCCUCUCUGGAUUCCUCGUCACUCAGCAGGGCAUCUCUGAGAGAAACGCC [C17G U143C] | 1.09 |
| UACGUAGGUGGUUUUCUCCUGAUAGUGCUAAGGGGGCCUGGAAGUUUGGACUGGGCAGAGCUCAACACAGCGUGGCAAAGUGGCUGUGGCUAGACUGCCUCUCUGGAUUCCUCGUCACUCAGCAGGGCAUCUCUGAGAGAAAUGCC [C17U] | 1.09 |

| Variant | self-cleavage |
| --- | --- |
| UACGUAGGUGGUUUUCUCCUGAUAGUGCUGAGGGGGCCUGGAAGUUUGGACUGGGCAGAGCUCAACACAGCGUGGCAAAGUGGCUGUGGCUAGACUGCCUCUCUGGAUUCCUCGUCACUCAGCAGGGCAUCUCUGAGAGAAAUGCC [C17U A30G] | 1.44 |
| UACGUAGGUGGUUUUCUCCUGAUAGUGCUAAGGGGGCCUGGAAGUUUGGACUGGGCAGUGCUCAACACAGCGUGGCAAAGUGGCUGUGGCUAGACUGCCUCUCUGGAUUCCUCGUCACUCAGCAGGGCAUCUCUGAGAGAAAUGCC [C17U A59U] | 0.51 |
| UACGUAGGUGGUUUUCUCCUGAUAGUGCUAAGGGGGCCUGGAAGUUUGGACUGGGCAGAGCUCAACACAGCGUGGCAAAGUGGCUGUGGCUAGGCUGCCUCUCUGGAUUCCUCGUCACUCAGCAGGGCAUCUCUGAGAGAAAUGCC [C17U A94G] | 0.31 |
| UACGUAGGUGGUUUUCUCCUGAUAGUGCUAAGGGGGCCUGGAAGUUUGGACUGGGCAGAGCUCAACACAGCGUGGCAAAGUGGCUGUGGCUAGUCUGCCUCUCUGGAUUCCUCGUCACUCAGCAGGGCAUCUCUGAGAGAAAUGCC [C17U A94U] | 0.17 |
| UACGUAGGUGGUUUUCUCCUGAUAGUGCUAAGGGGGCCUGGAAGUUUGGACUGGGCAGAGCUCAACACAGCGUGGCAAAGUGGCUGUGGCUAGACUGCCUCUCUGGAUUCCUCGUCACUCAGCGGGGCAUCUCUGAGAGAAAUGCC [C17U A124G] | 0.47 |
| UACGUAGGUGGUUUUCUCCUGAUAGUGCUAAGGGGGCCUGGAAGUUUGGACUGGGCAGAGCUCAACACAGCGUGGCAAAGUGGCUGUGGCUAGACUGCCUCUCUGGAUUCCUCGUCACUCAGCAGGGCAUCUCUGAGCGAAAUGCC [C17U A138C] | 1.12 |
| UACGUAGGUGGUUUUCUCCUGAUAGUGCUAAGGGGGCCUGGAAGUUUGGACUGGGCAGAGCUCAACACAGCGUGGCAAAGUGGCUGUGGCUAGACUGCCUCUCUGGAUUCCUCGUCACUCAGCAGGGCAUCUCUGAGAGGAAUGCC [C17U A140G] | 1.02 |
| UACGUAGGUGGUUUUCUCCUGAUAGUGCUAAGGGGGCCUGGAAGUUUGGACUGGGCAGAGCUCAACACAGCGUGGCAAAGUGGCUGUGGCUAGACUGCCUCUCUGGAUUCCUCGUCACUCAGCAGGGCAUCUCUGAGAGAGAUGCC [C17U A141G] | 0 |
| UACGUAGGUGGUUUUCUCCUGAUAGUGCUAAGGGGGCCUGGAAGUUUGGACUGGGCAGAGCUCAACACAGCGUGGCAAAGUGGCUGUGGCUAGACUGCCUCUCUGGAUUCCUCGUCACUCAGCAGGGCAUAUCUGAGAGAAAUGCC [C17U C131A] | 1.58 |
| UACGUAGGUGGUUUUCUCCUGAUAGUGCUAAGGGGGCCUGGAAGUUUGGACUGGGCAGAGCUCAACACAGCAUGGCAAAGUGGCUGUGGCUAGACUGCCUCUCUGGAUUCCUCGUCACUCAGCAGGGCAUCUCUGAGAGAAAUGCC [C17U G72A] | 1.05 |
| UACGUAGGUGGUUUUCUCCGGAUAGUGCUAAGGGGGCCUGGAAGUUUGGACUGGGCAGAGCUCAACACAGCGUGGCAAAGUGGCUGUGGCUAGACUGCCUCUCUGGAUUCCUCGUCACUCAGCAGGGCAUCUCUGAGAGAAAUGCC [C17U U20G] | 0.57 |
| UACGUAGGUGGUUUUCUCCUGACAGUGCUAAGGGGGCCUGGAAGUUUGGACUGGGCAGAGCUCAACACAGCGUGGCAAAGUGGCUGUGGCUAGACUGCCUCUCUGGAUUCCUCGUCACUCAGCAGGGCAUCUCUGAGAGAAAUGCC [C17U U23C] | 0.68 |
| UACGUAGGUGGUUUUCUCCUGAGAGUGCUAAGGGGGCCUGGAAGUUUGGACUGGGCAGAGCUCAACACAGCGUGGCAAAGUGGCUGUGGCUAGACUGCCUCUCUGGAUUCCUCGUCACUCAGCAGGGCAUCUCUGAGAGAAAUGCC [C17U U23G] | 1.11 |
| UACGUAGGUGGUUUUCUCCUGAUAGCGCUAAGGGGGCCUGGAAGUUUGGACUGGGCAGAGCUCAACACAGCGUGGCAAAGUGGCUGUGGCUAGACUGCCUCUCUGGAUUCCUCGUCACUCAGCAGGGCAUCUCUGAGAGAAAUGCC [C17U U26C] | 0.6 |
| UACGUAGGUGGUUUUCUCCUGAUAGUGCCAAGGGGGCCUGGAAGUUUGGACUGGGCAGAGCUCAACACAGCGUGGCAAAGUGGCUGUGGCUAGACUGCCUCUCUGGAUUCCUCGUCACUCAGCAGGGCAUCUCUGAGAGAAAUGCC [C17U U29C] | 0.81 |
| UACGUAGGUGGUUUUCUCCUGAUAGUGCUAAGGGGGCCUGGAAGUUUGGACGGGGCAGAGCUCAACACAGCGUGGCAAAGUGGCUGUGGCUAGACUGCCUCUCUGGAUUCCUCGUCACUCAGCAGGGCAUCUCUGAGAGAAAUGCC [C17U U52G] | 1.41 |
| UACGUAGGUGGUUUUCUCCUGAUAGUGCUAAGGGGGCCUGGAAGUUUGGACUGGGCAGAGCUCAACACAGCGUGGCAAAGAGGCUGUGGCUAGACUGCCUCUCUGGAUUCCUCGUCACUCAGCAGGGCAUCUCUGAGAGAAAUGCC [C17U U81A] | 1.53 |
| UACGUAGGUGGUUUUCUCCUGAUAGUGCUAAGGGGGCCUGGAAGUUUGGACUGGGCAGAGCUCAACACAGCGUGGCAAAGUGGCUGUGGCUAGACCGCCUCUCUGGAUUCCUCGUCACUCAGCAGGGCAUCUCUGAGAGAAAUGCC [C17U U96C] | 0.1 |
| UACGUAGGUGGUUUUCUCCUGAUAGUGCUAAGGGGGCCUGGAAGUUUGGACUGGGCAGAGCUCAACACAGCGUGGCAAAGUGGCUGUGGCUAGACUGCCUCUCAGGAUUCCUCGUCACUCAGCAGGGCAUCUCUGAGAGAAAUGCC [C17U U104A] | 0.95 |

Source: the RNAGym collection of RNA variant scans (doi:10.7554/elife.90254)
